Reference: IntAct's records for PubMed 17227844

B1: Spindle assembly checkpoint protein BUB3 (Saccharomyces cerevisiae), P26449 (parent)
chain: MQIVQIEQAPKDYISDIKIIPSKSLLLITSWDGSLTVYKFDIQAKNVDLLQSLRYKHPLLCCNFIDNTDLQIYVGTVQGEILKVDLIGSPSFQALTNNEANLGICRICKYGDDKLIAASWDGLIEVIDPRNYGDGVIAVKNLNSNNTKVKNKIFTMDTNSSRLIVGMNNSQVQWFRLPLCEDDNGTIEESGLKYQIRDVALLPKEQEGYACSSIDGRVAVEFFDDQGDDYNSSKRFAFRCHRLNLKDTNLAYPVNSIEFSPRHKFLYTAGSDGIISCWNLQTRKKIKNFAKFNEDSVVKIACSDNILCLATSDDTFKTNAAIDQTIELNASSIYIIFDYEN
partner: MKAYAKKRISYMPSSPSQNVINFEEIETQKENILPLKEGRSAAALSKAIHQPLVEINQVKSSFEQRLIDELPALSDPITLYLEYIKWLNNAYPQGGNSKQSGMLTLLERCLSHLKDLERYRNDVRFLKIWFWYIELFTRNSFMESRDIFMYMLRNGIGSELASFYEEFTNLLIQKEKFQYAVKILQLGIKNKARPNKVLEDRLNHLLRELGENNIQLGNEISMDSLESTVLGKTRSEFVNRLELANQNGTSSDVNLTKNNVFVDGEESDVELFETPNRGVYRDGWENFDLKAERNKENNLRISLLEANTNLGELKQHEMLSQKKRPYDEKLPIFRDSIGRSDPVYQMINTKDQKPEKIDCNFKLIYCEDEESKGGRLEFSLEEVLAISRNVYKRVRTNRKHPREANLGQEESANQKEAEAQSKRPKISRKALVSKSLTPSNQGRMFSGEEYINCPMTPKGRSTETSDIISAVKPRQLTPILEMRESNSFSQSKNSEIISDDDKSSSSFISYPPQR

Variants of: B1
Settings: with mad3_yeast MAD3, P47074

Variant | effect of a mutation on the interaction
MQIVQIEQAPKDYISDIKIIPSKSLLLITSWDGSLTVYKFDIQAKNVDLLQSLRYKHPLLCCNFIDNTDLQIYVGTVQGEILKVDLIGSPSFQALTNNEANLGICRICKYGDDKLIAASWDGLIEVIDPRNYGDGVIAVKNLNSNNTKVKNKIFTMDTNSSRLIVGMNNSQVQWFRLPLCEDDNGTIEESGLKYQIEDVALLPKEQEGYACSSIDGRVAVEFFDDQGDDYNSSKRFAFRCHRLNLKDTNLAYPVNSIEFSPRHKFLYTAGSDGIISCWNLQTRKKIKNFAKFNEDSVVKIACSDNILCLATSDDTFKTNAAIDQTIELNASSIYIIFDYEN [R197E] | disrupting interaction strength
